The labels stand for the following.
B1: Tuftelin-interacting protein 11 (Homo sapiens), Q9UBB9 (parent)
chain: MSLSHLYRDGEGRIDDDDDERENFEITDWDLQNEFNPNRQRHWQTKEEATYGVWAERDSDDERPSFGGKRARDYSAPVNFISAGLKKGAAEEAELEDSDDEEKPVKQDDFPKDFGPRKLKTGGNFKPSQKGFAGGTKSFMDFGSWERHTKGIGQKLLQKMGYVPGRGLGKNAQGIINPIEAKQRKGKGAVGAYGSERTTQSMQDFPVVDSEEEAEEEFQKELSQWRKDPSGSKKKPKYSYKTVEELKAKGRISKKLTAPQKELSQVKVIDMTGREQKVYYSYSQISHKHNVPDDGLPLQSQQLPQSGKEAKAPGFALPELEHNLQLLIDLTEQEIIQNDRQLQYERDMVVNLFHELEKMTEVLDHEERVISNLSKVLEMVEECERRMQPDCSNPLTLDECARIFETLQDKYYEEYRMSDRVDLAVAIVYPLMKEYFKEWDPLKDCTYGTEIISKWKSLLENDQLLSHGGQDLSADAFHRLIWEVWMPFVRNIVTQWQPRNCDPMVDFLDSWVHIIPVWILDNILDQLIFPKLQKEVENWNPLTDTVPIHSWIHPWLPLMQARLEPLYSPIRSKLSSALQKWHPSDSSAKLILQPWKDVFTPGSWEAFMVKNIVPKLGMCLGELVINPHQQHMDAFYWVIDWEGMISVSSLVGLLEKHFFPKWLQVLCSWLSNSPNYEEITKWYLGWKSMFSDQVLAHPSVKDKFNEALDIMNRAVSSNVGAYMQPGARENIAYLTHTERRKDFQYEAMQERREAENMAQRGIGVAASSVPMNFKDLIETKAEEHNIVFMPVIGKRHEGKQLYTFGRIVIYIDRGVVFVQGEKTWVPTSLQSLIDMAK
partner: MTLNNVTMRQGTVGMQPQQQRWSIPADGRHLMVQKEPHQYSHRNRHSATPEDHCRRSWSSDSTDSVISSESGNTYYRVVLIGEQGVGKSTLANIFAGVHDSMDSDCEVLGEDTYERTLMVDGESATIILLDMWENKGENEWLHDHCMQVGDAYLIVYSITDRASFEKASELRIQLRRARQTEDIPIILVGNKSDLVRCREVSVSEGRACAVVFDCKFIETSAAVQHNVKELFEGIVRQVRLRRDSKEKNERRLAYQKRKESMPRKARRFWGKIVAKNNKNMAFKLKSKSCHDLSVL
B2: 2'-5'-oligoadenylate synthase 2 (Homo sapiens), P29728 (parent)
chain: MGNGESQLSSVPAQKLGWFIQEYLKPYEECQTLIDEMVNTICDVLQEPEQFPLVQGVAIGGSYGRKTVLRGNSDGTLVLFFSDLKQFQDQKRSQRDILDKTGDKLKFCLFTKWLKNNFEIQKSLDGFTIQVFTKNQRISFEVLAAFNALSLNDNPSPWIYRELKRSLDKTNASPGEFAVCFTELQQKFFDNRPGKLKDLILLIKHWHQQCQKKIKDLPSLSPYALELLTVYAWEQGCRKDNFDIAEGVRTVLELIKCQEKLCIYWMVNYNFEDETIRNILLHQLQSARPVILDPVDPTNNVSGDKICWQWLKKEAQTWLTSPNLDNELPAPSWNVLPAPLFTTPGHLLDKFIKEFLQPNKCFLEQIDSAVNIIRTFLKENCFRQSTAKIQIVRGGSTAKGTALKTGSDADLVVFHNSLKSYTSQKNERHKIVKEIHEQLKAFWREKEEELEVSFEPPKWKAPRVLSFSLKSKVLNESVSFDVLPAFNALGQLSSGSTPSPEVYAGLIDLYKSSDLPGGEFSTCFTVLQRNFIRSRPTKLKDLIRLVKHWYKECERKLKPKGSLPPKYALELLTIYAWEQGSGVPDFDTAEGFRTVLELVTQYQQLCIFWKVNYNFEDETVRKFLLSQLQKTRPVILDPAEPTGDVGGGDRWCWHLLAKEAKEWLSSPCFKDGTGNPIPPWKVPTMQTPGSCGARIHPIVNEMFSSRSHRILNNNSKRNF
B3: Ligand of Numb protein X 2 (Homo sapiens), Q8N448 (parent)
chain: MGTTSDEMVSVEQTSSSSLNPLCFECGQQHWTRENHLYNYQNEVDDDLVCHICLQPLLQPLDTPCGHTFCYKCLRNFLQEKDFCPLDRKRLHFKLCKKSSILVHKLLDKLLVLCPFSSVCKDVMQRCDLEAHLKNRCPGASHRRVALERRKTSRTQAEIENENGPTLLDPAGTLSPEADCLGTGAVPVERHLTSASLSTWSEEPGLDNPAFEESAGADTTQQPLSLPEGEITTIEIHRSNPYIQLGISIVGGNETPLINIVIQEVYRDGVIARDGRLLAGDQILQVNNYNISNVSHNYARAVLSQPCNTLHLTVLRERRFGNRAHNHSDSNSPREEIFQVALHKRDSGEQLGIKLVRRTDEPGVFILDLLEGGLAAQDGRLSSNDRVLAINGHDLKYGTPELAAQIIQASGERVNLTIARPGKPQPGNTIREAGNHSSSSQHHTPPPYYSRPSSHKDLTQCVTCQEKHITVKKEPHESLGMTVAGGRGSKSGELPIFVTSVPPHGCLARDGRIKRGDVLLNINGIDLTNLSHSEAVAMLKASAASPAVALKALEVQIVEEATQNAEEQPSTFSENEYDASWSPSWVMWLGLPSTLHSCHDIVLRRSYLGSWGFSIVGGYEENHTNQPFFIKTIVLGTPAYYDGRLKCGDMIVAVNGLSTVGMSHSALVPMLKEQRNKVTLTVICWPGSLV
partner: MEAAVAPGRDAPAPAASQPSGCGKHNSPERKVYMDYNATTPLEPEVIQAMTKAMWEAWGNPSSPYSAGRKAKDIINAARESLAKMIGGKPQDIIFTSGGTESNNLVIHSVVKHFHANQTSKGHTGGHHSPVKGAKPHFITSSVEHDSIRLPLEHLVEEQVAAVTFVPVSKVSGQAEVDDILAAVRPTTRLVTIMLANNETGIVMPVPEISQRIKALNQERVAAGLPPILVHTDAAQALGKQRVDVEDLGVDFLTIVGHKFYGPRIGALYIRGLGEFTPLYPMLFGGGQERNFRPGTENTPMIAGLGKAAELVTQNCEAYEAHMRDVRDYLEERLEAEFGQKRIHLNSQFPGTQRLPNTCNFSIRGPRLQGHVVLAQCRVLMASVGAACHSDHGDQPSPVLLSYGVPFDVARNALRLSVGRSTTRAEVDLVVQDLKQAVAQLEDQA
B4: Protein SSX5 (Homo sapiens), O60225 (parent)
chain: MNGDDAFVRRPRVGSQIPEKMQKAFDDIAKYFSEKEWEKMKASEKIIYVYMKRKYEAMTKLGFKATLPPFMRNKRVADFQGNDFDNDPNRGNQVEHPQMTFGRLQGIFPKITPEKPAEEGNDSKGVPEASGPQNNGKQLRPSGKLNTSEKVNKTSGPKRGKHAWTHRVRERKQLVIYEEISDPQEDDE
B5: Zinc finger CCCH-type with G patch domain-containing protein (Homo sapiens), Q8N5A5 (parent)
chain: MDEESLESALQTYRAQLQQVELALGAGLDSSEQADLRQLQGDLKELIELTEASLVSVRKSSLLAALDEERPGRQEDAEYQAFREAITEAVEAPAAARGSGSETVPKAEAGPESAAGGQEEEEGEDEEELSGTKVSAPYYSSWGTLEYHNAMVVGTEEAEDGSAGVRVLYLYPTHKSLKPCPFFLEGKCRFKENCRFSHGQVVSLDELRPFQDPDLSSLQAGSACLAKHQDGLWHAARITDVDNGYYTVKFDSLLLREAVVEGDGILPPLRTEATESDSDSDGTGDSSYARVVGSDAVDSAQSSALCPSLAVVGSDAVDSGTCSSAFAGWEVHTRGIGSRLLTKMGYEFGKGLGRHAEGRVEPIHAVVLPRGKSLDQCVETLQKQTRVGKAGTNKPPRCRGRGARPGGRPAPRNVFDFLNEKLQGQAPGALEAGAAPAGRRSKDMYHASKSAKRALSLRLFQTEEKIERTQRDIRSIQEALARNAGRHSVASAQLQEKLAGAQRQLGQLRAQEAGLQQEQRKADTHKKMTEF
partner: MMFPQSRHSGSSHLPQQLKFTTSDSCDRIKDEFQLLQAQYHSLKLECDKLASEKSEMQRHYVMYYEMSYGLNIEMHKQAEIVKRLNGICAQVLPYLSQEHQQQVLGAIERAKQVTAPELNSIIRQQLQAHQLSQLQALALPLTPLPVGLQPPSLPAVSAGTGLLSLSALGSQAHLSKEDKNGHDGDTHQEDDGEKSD
B6: Gem-associated protein 7 (Homo sapiens), Q9H840 (parent)
chain: MQTPVNIPVPVLRLPRGPDGFSRGFAPDGRRAPLRPEVPEIQECPIAQESLESQEQRARAALRERYLRSLLAMVGHQVSFTLHEGVRVAAHFGATDLDVANFYVSQLQTPIGVQAEALLRCSDIISYTFKP
B7: Tumor susceptibility gene 101 protein (Homo sapiens), Q99816 (parent)
chain: MAVSESQLKKMVSKYKYRDLTVRETVNVITLYKDLKPVLDSYVFNDGSSRELMNLTGTIPVPYRGNTYNIPICLWLLDTYPYNPPICFVKPTSSMTIKTGKHVDANGKIYLPYLHEWKHPQSDLLGLIQVMIVVFGDEPPVFSRPISASYPPYQATGPPNTSYMPGMPGGISPYPSGYPPNPSGYPGCPYPPGGPYPATTSSQYPSQPPVTTVGPSRDGTISEDTIRASLISAVSDKLRWRMKEEMDRAQAELNALKRTEEDLKKGHQKLEEMVTRLDQEVAEVDKNIELLKKKDEELSSALEKMENQSENNDIDEVIIPTAPLYKQILNLYAEENAIEDTIFYLGEALRRGVIDLDVFLKHVRLLSRKQFQLRALMQKARKTAGLSDLY
B8: Keratin, type II cytoskeletal 6A (Homo sapiens), P02538 (parent)
chain: MASTSTTIRSHSSSRRGFSANSARLPGVSRSGFSSVSVSRSRGSGGLGGACGGAGFGSRSLYGLGGSKRISIGGGSCAISGGYGSRAGGSYGFGGAGSGFGFGGGAGIGFGLGGGAGLAGGFGGPGFPVCPPGGIQEVTVNQSLLTPLNLQIDPTIQRVRAEEREQIKTLNNKFASFIDKVRFLEQQNKVLETKWTLLQEQGTKTVRQNLEPLFEQYINNLRRQLDSIVGERGRLDSELRGMQDLVEDFKNKYEDEINKRTAAENEFVTLKKDVDAAYMNKVELQAKADTLTDEINFLRALYDAELSQMQTHISDTSVVLSMDNNRNLDLDSIIAEVKAQYEEIAQRSRAEAESWYQTKYEELQVTAGRHGDDLRNTKQEIAEINRMIQRLRSEIDHVKKQCANLQAAIADAEQRGEMALKDAKNKLEGLEDALQKAKQDLARLLKEYQELMNVKLALDVEIATYRKLLEGEECRLNGEGVGQVNISVVQSTVSSGYGGASGVGSGLGLGGGSSYSYGSGLGVGGGFSSSSGRAIGGGLSSVGGGSSTIKYTTTSSSSRKSYKH
partner: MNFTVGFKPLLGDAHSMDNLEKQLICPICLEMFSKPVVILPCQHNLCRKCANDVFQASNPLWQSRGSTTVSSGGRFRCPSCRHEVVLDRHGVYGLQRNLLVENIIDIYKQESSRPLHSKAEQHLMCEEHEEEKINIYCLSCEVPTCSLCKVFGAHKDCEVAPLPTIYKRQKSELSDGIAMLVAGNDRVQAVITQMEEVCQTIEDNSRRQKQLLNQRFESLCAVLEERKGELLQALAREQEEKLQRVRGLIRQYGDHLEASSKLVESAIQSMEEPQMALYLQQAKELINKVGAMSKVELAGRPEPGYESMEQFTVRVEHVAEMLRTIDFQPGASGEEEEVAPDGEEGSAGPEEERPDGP

The variants in the first assay derive from B1. Particulars: with gem_human GEM.
On to R8Q, for which the “effect of a mutation on the interaction” value is reported as “with no effect”.

With S688L, the “effect of a mutation on the interaction” value is listed as “with no effect”.

Another assay covers variants of B2. Particulars: with clk3_human CLK3, P49761.
clk3_human CLK3, P49761, sequence (P49761 whole entry, looked up): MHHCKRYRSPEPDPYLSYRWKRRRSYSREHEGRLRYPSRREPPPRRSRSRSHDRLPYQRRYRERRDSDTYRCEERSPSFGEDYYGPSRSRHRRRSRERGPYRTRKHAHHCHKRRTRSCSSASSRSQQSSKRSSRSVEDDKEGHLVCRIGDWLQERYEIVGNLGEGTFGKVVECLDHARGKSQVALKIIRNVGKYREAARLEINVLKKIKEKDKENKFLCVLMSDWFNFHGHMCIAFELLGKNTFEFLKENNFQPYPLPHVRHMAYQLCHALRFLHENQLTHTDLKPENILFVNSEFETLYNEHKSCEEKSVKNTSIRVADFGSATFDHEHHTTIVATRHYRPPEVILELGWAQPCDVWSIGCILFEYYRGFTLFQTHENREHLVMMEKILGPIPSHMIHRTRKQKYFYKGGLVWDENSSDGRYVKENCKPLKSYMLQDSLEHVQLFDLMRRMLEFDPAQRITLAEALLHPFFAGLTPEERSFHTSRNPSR
On to R535Q, for which the “effect of a mutation on the interaction” value is “disrupting interaction strength”.

With V620M, the “effect of a mutation on the interaction” value is “with no effect”.

In the next assay the parent is B3. The conditions noted are these: with scly_human SCLY.
Turning to S198P, the “effect of a mutation on the interaction” value was “with no effect”.

The variants in another assay derive from B4. The conditions noted are these: with atrap_human AGTRAP.
K20N: the “effect of a mutation on the interaction” value is given as “with no effect”.

The next assay covers variants of B5. Particulars: with tle5_human TLE5, Q08117.
Regarding S61R, the “effect of a mutation on the interaction” value is “with no effect”.

In a further assay the parent is B6. Particulars: with gemi6_human GEMIN6, Q8WXD5.
gemi6_human GEMIN6, Q8WXD5, sequence (Q8WXD5 whole entry): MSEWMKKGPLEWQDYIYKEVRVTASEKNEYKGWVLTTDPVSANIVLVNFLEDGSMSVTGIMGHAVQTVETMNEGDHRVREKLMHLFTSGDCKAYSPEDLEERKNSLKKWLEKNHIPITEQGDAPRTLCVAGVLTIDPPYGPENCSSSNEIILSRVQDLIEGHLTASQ
For the variant R68C, the “effect of a mutation on the interaction” value is recorded as “with no effect”.

Variants of B7 are the subject of a further assay. The conditions noted are these: with hgs_human HGS.
Take M167I: the “effect of a mutation on the interaction” value was “with no effect”.

The variants in the next assay derive from B8. Particulars: with tri54_human TRIM54, Q9BYV2.
With V523F, the “effect of a mutation on the interaction” value is reported as “with no effect”.

Regarding R415H, the “effect of a mutation on the interaction” value is given as “with no effect”.

These data come from IntAct's records for PubMed 31515488.
